Measured values published in the nanobody polyreactivity screen of Harvey et al. (2022).

Test: yeast display, Sf9 membrane polyspecificity reagent, FACS + sequencing; frameworks hold sequencing errors
Method in brief: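 Using colony PCR, genes from sorted yeast display clones were amplified, then sequenced on MiSeq at 2 × 250 and filtered by CDR length. The clones had been stained with 10% biotinylated, detergent-solubilized Sf9 membrane reagent for 1 hour at 4 °C and sorted by FACS into low and high (top ~1%) gates on anti-HA and streptavidin fluorescence. Polyreactivity labels come from the gate of origin.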

| Sequence | polyreactivity (PSR sort gate) |
| --- | --- |
| QVQLVESGGGLVQAGASLRLSCAASGRTLKVYAMGWYRQAPGKERELDAAINNGGSTNYADSVKGRFTISRDNAKNTVYLQMNSLKPEDTAVYYCNAVYYARYRKYTYYYWGQGTQVTVSS | high polyreactivity |
| QVQLVESGGGLVQAGASLRLSCAASGSIFGGYGMGWYRQAPGKERELVAAITSRVGSTYYADSVKGRFTSSRDNAKNTVYLQLNSLNPEDTAVYYCAAKRIYSWGRWTGDYWGQGTQVTVSS | high polyreactivity |
| QVQLVESGGGLVQAGASLRLSCAASGSIFRVYAMGWYRQAPGKERELVATIDTSTDSTYYADSVKGRFTISRDNAKNTVYIQMNSLKPEDTAVYYCNARGTYARYFQYDYSGQGTQVTVSS | low polyreactivity |
| QVQLVESGGGLVQAGASLRLSCAASGSIFSWYTMGWYRQAPGKERELVARITTSGGTTLYADSVKGRFTISRDNAKNTVYFQMNSLKPEDTAVYYCAADRSPYWRGYVRYNYWGQGTQVTVSS | high polyreactivity |
| QVQLVESGGGLVQAGASLRLSCAASGSIIDDYAMGWYRQAPGKERELVAAITYSGGTTYYADSVKGRFTISRDNAKNTVYLQLNSLKREDTAVYYCAAEWRVYYATYGYWGQGTQVTVSS | high polyreactivity |
| QVQLVESGGGLVQAGASLRLSCAASGSTFVIYTMGWYRQAPGKERDLVAAISWSGGITRYADSVKGRFTISRDNGKNTVYLQMNSLKPEDTAVYYCNASQWPSRFDYWGQGPQVTVSS | low polyreactivity |
| QVQLVESGGGLVQAGASLRLSCAASGSTLSYAMGWYRQAPGKERELVAAISRSGGSTYYADSVKGRFTISRDNAKNTVYLLMNSLKPEDTAVYYCAADPYPSYANGGYYWGQGTQVTVSS | low polyreactivity |
| QVQLVESGGGLVQAGASLRLSCAASVSTFGVNAMGCYRQAPGKERELVAAISSSGSSTYADSVKGRFTISRDNAKNTVYLQMNSLKPEDTAVYYCNITTLLSVVYDYWGQGTQVNVSS | low polyreactivity |
| QVQLVESGGGLVQAGASLRLSCAAYGNINAYYAMGWYRQAPGKERELVAAITDSGGNTFYADSVKGRFTISRDNAKNTVYLQMNSLTPADSAVYYCADDPDGWGFVYPRYDYWGQCTQVTVSS | low polyreactivity |
| QVQLVESGGGLVQAGASLRLSCAGSGIIFTRYAMGWYRQAPGKERELVAAITRNGVSTYYADSVKGRFTISRDNAKNTVYLQMNSLKPEDTAVYYCNTYVLRRYAYGYWGQGTQVTVSS | high polyreactivity |
| QVQLVESGGGLVQAGASLRLSCASSGSIFPGYDMGWYRQAPGKEREMVAAITTGGSTYYADSVKGRFTISRDNAKNTVYLQMNSLKPEDTAVYYCAAVYTGSGKRYYKGYYWGQGSQVTVSS | low polyreactivity |
| QVQLVESGGGLVQAGASRRLSCAASVFTFGDNAMGWSRQATGKDRELVDAITSSGSTNYADSVKGRFTMSRDIAKNTVYLQLNSLTQEDTAVNYCNAEDSVDAPVYKDLGSEYDSWGQGTQVTVSS | low polyreactivity |
| QVQLVESGGGLVQAGCILRLSCAASGRIYVKAMGCYRQPPGIERELVAAIRSGGSTNYADSVKGLFTISRDNAKNTVYLQMNSLKPEDTAVYYCDAPYRLSKYDYWGQGTQVTESS | high polyreactivity |
| QVQLVESGGGLVQAGCSLRITCAASGYTFYDYAMGWYRQAPRKERELVAAISSSGGSTYYAHSVKGRFTISRDTAKNTVYLQMISLKPEDTAVYYCDVRARRWRYNYWGQGTQVTVSS | high polyreactivity |
| QVQLVESGGGLVQAGCSLRLSCAACGSIFGPYSMGWYRQAPAKEREFVAAISRSGTSTNYADSVKGRFTISRDNAKNTVYLQMNSLKPEDTAVYYCATAAFIVGSSRTYDYWGQGTQVTVSS | high polyreactivity |
| QVQLVESGGGLVQAGCSLRLSCAASGFTFDGYAMVSYRQAPGKERELVAAISDSGDSTYYADSVKGRFTISRDNAKNTVYLQMISLKPEDTADYYCAAALGYYWSDYFAYDYWGQGTQVTVSS | low polyreactivity |
| QVQLVESGGGLVQAGCSLRLSCAASGFTFIQYAMGWYRPAPGKERELVAAITRSGGRTYYADSVKGRFTISRDNAKNTVYLQMNSLKPEDTAVYYCNAVSRIYPGDEFGYWGQGTQVTVSS | high polyreactivity |
| QVQLVESGGGLVQAGCSLRLSCAASGRIFDTYAKGWYRQAPGKERELVATITAGTSTNYADSVKGRFTISRDNAKNTVYLKMNCLKPEDTAVYYCAASKYGSPPYRSYVYWGQGTQVSVSS | high polyreactivity |
| QVQLVESGGGLVQAGCSLRLSCAASGRIFSRNAMGWYRQAPGKERELVAVITKRGGSTYYADSVKGRFTISRDKAKNTVYLQMNSLKPEDTAVYYCNAVPRRGIAFNHWGQGTHVTVSS | high polyreactivity |
| QVQLVESGGGLVQAGCSLRLSCAASGRIFTTYAMGWYRQAPGKERELVASIDSRGDSTYADSVKGRFTISRDNAKNTVYLQMNSLKPEDTAVYYCAADSWYTWFDSWGQGTQVTVSS | low polyreactivity |
| QVQLVESGGGLVQAGCSLRLSCAASGRIFVKYTMGWYRQAPGKERELVAAIDFDTDSKYYADSVKGRFTFSRDNAKNTVYFQMNSLNPEDTAVYYCAADSYYYGYQGQTQYGWVWYDYWGQVTQVTVSS | low polyreactivity |
